This assay addresses specific antigen (aa 245-258 of the GCN4 leucine zipper) fused to LexA (yeast). As to the kind of experiment: yeast two hybrid, LacZ reporter, bait LexA-GCN4 leucine zipper; Empty Vector is printed as 0.18.

“Gal4 AD-AL5 scFv fusion (ampicillin-binding control scFv AL5) (from UniProt P04386 768-881)” came in with a Rel. β-gal. activity % of 0.19%.
